Results on five molecules are retold here after patent US20080194027, “Compositions, methods and kits based on small nuclear RNAs” (Trustees of the University of Pennsylvania, published 2008).

Data set [1] has as its target T1, snRNP total proteins (TPs; seven Sm proteins plus U1 snRNP proteins) (Homo sapiens, UniProt P14678;P62314;P62316;P62318;P62304;P62306;P62308;P08621;P09012;P09234 …). As to the kind of experiment: pulldown; Y12 IP; phosphorothioate interference at U92, C86, G109, none in Sm site. The conditions noted are these: tags: anti-TMG immunopurified from HeLa; label: 32P-UTP.

Data set [2] addresses T1, snRNP total proteins (TPs; seven Sm …). As to the kind of experiment: pulldown; Sm core assembly, Y12 IP. The conditions noted are these: tags: anti-TMG immunopurified from HeLa; label: 32P-UTP.

B1: HSUR5-60 (nt 60-114) (ssRNA)
RNA: AUUUUUG
Regarding B1, in data set [1], the binding result is reported as “binds”.

B2: HSUR5-60 Sm U2C (ssRNA)
RNA: AUCUUUG
modifications: [none]
On to B2, for which the binding result in data set [2] is on record as “binds”.

B3: HSUR5-60 Sm U4C (ssRNA)
RNA: AUUUCUG
modifications: [none]
As for B3, the binding result in data set [2] is reported as “binds”.

B4: HSUR5-60 Sm U3C (ssRNA)
RNA: AUUCUUG
modifications: [none]
Regarding B4, the binding result in data set [2] is on record as “binds”.

B5: HSUR5-60 Sm U1C (ssRNA)
RNA: ACUUUUG
modifications: [none]
On to B5, for which the binding result in data set [2] is “binds”.
